From paper PMC7357788, “Overlapping functions and protein-protein interactions of LRR-extensins in Arabidopsis” (PLoS Genetics, 2020)
“Also recorded” adds a separate entry of the source. Ends that are not written are not given here.

Assays:
LRX3, LRX4, and LRX5 = settings: vegetative tissues; ref [40],[41]; cited from earlier work
Excerpt: LRX proteins were recently identified as high-affinity binding sites for RALF peptides, with the binding spectrum differing among the LRXs. […] Whether and how the binding of RALFs and FER to LRXs influences the interaction of these proteins remains to be investigated. It is also unknown to what extent the different LRXs are functionally similar and whether they share FER as a common interaction ...

FLS2-BAK1 = settings: ref [17]; cited from earlier work
Excerpt: Different LRXs bind an overlapping but not identical array of RALF peptides, and the full binding spectrum of the different LRXs might be even broader. One reason for the distinct RALF binding spectrum of LRXs is based on their expression pattern. […] It can be speculated that the diverse affinities of RALFs and LRXs contribute to the specificities of the plant’s response to different RALF peptides that have distinct biological activities [[17],[18],[19],[20],[26 ...

LRX1^ΔE = assay: Co-IP of LRX1^ΔE-HA with RALF1-FLAG; assay type: binding, Arabidopsis thaliana; settings: Co-IP and immunoblotting, transient expression in N. benthamiana
Description: Here, we tested binding of RALF1 to LRX1.
For pulldown and Co-IP analysis of the different constructs indicated in the experiments DNA was infiltrated into Nicotiana benthamiana leaves, and after 48 hrs, the leaves were excised and ground in liquid nitrogen as described in [62]. Two hundred mg of tissue powder was re-suspended in 500 μL extraction buffer [200 mM Tris-HCl (pH 7.5), 150 mM NaCl, 1 mM PMSF, protease inhibitor and 0.5% Triton X-100]. The suspension was incubated on ice for 30 minutes and then centrifuged at 11,000 rpm for 20 minutes at 4°C. The supernatant (200 μL) was then incubated with 10 μL anti-HA (Thermo Scientific, 88837), or anti-FLAG magnetic beads overnight at 4°C on a rotating shaker. If RALF1 peptide was added, the peptide was diluted in such way that for every sample 1μL of peptide was added to the protein extracts. After incubation, the beads were washed five times with the wash buffer (extraction buffer containing 0.05% Triton X-100) and boiled in SDS-PAGE loading buffer for 15 minutes at 75°C. The immunoprecipitates were then run on an SDS-PAGE gel and transferred to nitrocellulose membrane to perform immunoblotting using the following antibodies: anti-FLAG M2 (Sigma-Aldrich, F3165), anti-GFP (Biolegend, 902601), anti-HA-HRP 3F10 (Roche, 12 013 819 001) and anti-mouse-HRP (Sigma Aldrich, A 4416). […]

FER^ECD [1] = assay: Yeast-two-hybrid LRX LRR domain-FER^ECD; assay type: binding, Arabidopsis thaliana; settings: Y2H, yeast strain PJ69-4A, LRR domains, -Trp, Leu, His, Ade drop-out medium containing 5 mM 3-AT
Excerpt: The BD-LRX4 and AD-FER^ECD constructs for the Yeast-two-hybrid experiment were cloned as previously described, where NtermFER equals AD-FER^ECD and LRR4 equals BD-LRX4. For the BD-LRX1/2/3/5 constructs, the coding sequence of the LRR domain of the LRXs was amplified using primers (S3 Table) to introduce a BamHI and a XhoI site at the 5’ and 3’ end of the PCR fragments, respectively. These were cloned into pJET1.2 (Thermo Scientific) and correct clones were cut with BamHI and XhoI and ligated into pGBKT7 cut with BamHI and SalI. The AD-RALF1 construct was cloned into pJET1.2 (Thermo Scientific) by amplification of the coding sequence with the primers y2h_RALF1_F and y2h_RALF1_R. A correct clone was cut with EcoRI and XmaI and ligated into pGADT7 cut with EcoRI and XmaI.
Transformation of the yeast strain PJ69-4A [63] was done following standard procedures and quadruple drop-out medium lacking Leu, Trp, His, and Ade were used to screen for positive interactions after 4 days incubation at 30°C. Three different colonies containing both vectors were mixed and plated in triplicates on quadruple drop-out medium.
Supplementary file pgen.1008847.s001.pdf: S1 Fig Interaction of LRXs and FER in yeast-two-hybrid assays. […]

FER^ECD [2] = assay: Co-IP of LRX^ΔE with FER^ECD-Citrine; assay type: binding, Arabidopsis thaliana; settings: proteins expressed in N. benthamiana
Excerpt: The root hair-localized LRX1 is so far the best characterized LRX protein and the lrx1 root hair mutant represents a convenient genetic system for analyses of LRX protein function. […] To this end, constructs encoding LRX1^ΔE-FLAG and the extracellular domain of FER fused to citrine (FER^ECD-Citrine) under the 35S promoter were expressed in tobacco for Co-IP experiments. […] The Y2H experiments were extended to other LRXs of vegetative tissues, namely the LRR domains of LRX2, LRX3, LRX4, and LRX5.
For pulldown and Co-IP analysis of the different constructs indicated in the experiments DNA was infiltrated into Nicotiana benthamiana leaves, and after 48 hrs, the leaves were excised and ground in liquid nitrogen as described in [62]. Two hundred mg of tissue powder was re-suspended in 500 μL extraction buffer [200 mM Tris-HCl (pH 7.5), 150 mM NaCl, 1 mM PMSF, protease inhibitor and 0.5% Triton X-100]. The suspension was incubated on ice for 30 minutes and then centrifuged at 11,000 rpm for 20 minutes at 4°C. The supernatant (200 μL) was then incubated with 10 μL anti-HA (Thermo Scientific, 88837), or anti-FLAG magnetic beads overnight at 4°C on a rotating shaker. If RALF1 peptide was added, the peptide was diluted in such way that for every sample 1μL of peptide was added to the protein extracts. […]

[3] = biological target: LRX1^ΔE-FLAG (Arabidopsis thaliana); assay: BLI; BLITZ; LRX^ΔE-FLAG mixed with anti-FLAG M2 antibody and loaded onto a protein A biosensor; synthetic RALF1 peptide added at 0.2-200 μM; association 120 s, dissociation 120 s; sample diluent buffer (Pall FortéBio)
[4] = biological target: LRX3^ΔE-FLAG (Arabidopsis thaliana) (UniProt Q9T0K5); assay: as above
[5] = biological target: LRX4^ΔE-FLAG (Arabidopsis thaliana) (UniProt Q9LHF1); assay: as above
[6] = biological target: LRX5^ΔE-FLAG (Arabidopsis thaliana) (UniProt Q9SN46); assay: as above
LRX5^ΔE-FLAG (Arabidopsis thaliana), sequence (Q9SN46 32-857, stated change not applied): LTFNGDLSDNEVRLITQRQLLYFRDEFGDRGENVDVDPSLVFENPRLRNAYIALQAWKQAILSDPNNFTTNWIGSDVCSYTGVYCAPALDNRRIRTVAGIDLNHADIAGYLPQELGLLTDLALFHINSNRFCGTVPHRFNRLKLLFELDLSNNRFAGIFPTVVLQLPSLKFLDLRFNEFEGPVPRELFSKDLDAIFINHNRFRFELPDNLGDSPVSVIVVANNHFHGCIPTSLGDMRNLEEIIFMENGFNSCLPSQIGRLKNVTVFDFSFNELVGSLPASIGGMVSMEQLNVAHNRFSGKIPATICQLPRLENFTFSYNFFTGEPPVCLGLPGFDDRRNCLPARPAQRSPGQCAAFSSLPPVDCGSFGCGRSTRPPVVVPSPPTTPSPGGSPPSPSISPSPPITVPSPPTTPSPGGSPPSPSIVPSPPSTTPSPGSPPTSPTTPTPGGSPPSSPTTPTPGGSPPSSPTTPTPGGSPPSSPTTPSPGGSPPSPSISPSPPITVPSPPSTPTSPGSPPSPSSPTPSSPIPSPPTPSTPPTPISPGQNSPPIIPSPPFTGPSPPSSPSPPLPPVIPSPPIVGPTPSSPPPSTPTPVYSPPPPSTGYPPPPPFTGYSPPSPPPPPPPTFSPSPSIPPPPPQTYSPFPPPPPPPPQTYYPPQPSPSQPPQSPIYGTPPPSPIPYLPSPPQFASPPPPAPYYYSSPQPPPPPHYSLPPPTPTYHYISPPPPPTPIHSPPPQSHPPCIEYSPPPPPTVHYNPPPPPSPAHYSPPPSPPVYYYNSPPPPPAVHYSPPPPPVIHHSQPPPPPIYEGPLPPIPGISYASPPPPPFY

LRX4^ΔE-FLAG (Arabidopsis thaliana), sequence (Q9LHF1 26-494, stated change not applied): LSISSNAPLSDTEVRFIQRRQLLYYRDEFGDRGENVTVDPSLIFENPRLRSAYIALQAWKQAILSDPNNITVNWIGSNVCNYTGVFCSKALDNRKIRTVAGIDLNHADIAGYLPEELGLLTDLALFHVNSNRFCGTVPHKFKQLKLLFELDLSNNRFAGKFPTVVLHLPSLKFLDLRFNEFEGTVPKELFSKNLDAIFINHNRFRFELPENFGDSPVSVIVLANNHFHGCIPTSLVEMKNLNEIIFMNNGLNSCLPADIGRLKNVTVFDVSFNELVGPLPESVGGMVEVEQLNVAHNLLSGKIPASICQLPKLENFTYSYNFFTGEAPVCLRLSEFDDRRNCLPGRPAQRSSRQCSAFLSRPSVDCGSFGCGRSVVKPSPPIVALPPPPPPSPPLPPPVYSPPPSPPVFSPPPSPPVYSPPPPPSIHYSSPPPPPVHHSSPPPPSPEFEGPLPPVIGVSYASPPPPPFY

## RALF23: RALF peptide reported to be bound by LRX3, LRX4, and LRX5 (ATRRYISYGALRRNTIPCSRRGASYYNCRRGAQANPYSRGCSAITRCRRS; UniProt Q9LUS7 89-138, looked up)
LRX3, LRX4, and LRX5
  binding to LRX3, LRX4, and LRX5: reported to bind
FLS2-BAK1
  effect on scaffolding function of FER: inducing the dissociation of FLS2 from BAK1

## RALF1-FLAG: FLAG-tagged RALF1 transiently expressed in N. benthamiana (ATTKYISYQSLKRNSVPCSRRGASYYNCQNGAQANPYSRGCSKIARCRS; ends and bridges not checked; also: FLAG tag, site not given here; UniProt Q9SRY3 72-120, looked up)
LRX1^ΔE
  interaction with LRX1^ΔE: showed interaction of the two proteins

B1: LRX1: LRR domain of LRX1 (BD-LRX1), gene At1g12040 (protein)
chain: MLFPPLRSLFLFTLLLSSVCFLQIKADHDDESDLGSDIKVDKRLKFENPKLRQAYIALQSWKKAIFSDPFNFTANWNGSDVCSYNGIYCAPSPSYPKTRVVAGIDLNHADMAGYLASELGLLSDLALFHINSNRFCGEVPLTFNRMKLLYELDLSNNRFVGKFPKVVLSLPSLKFLDLRYNEFEGKIPSKLFDRELDAIFLNHNRFRFGIPKNMGNSPVSALVLADNNLGGCIPGSIGQMGKTLNELILSNDNLTGCLPPQIGNLKKVTVFDITSNRLQGPLPSSVGNMKSLEELHVANNAFTGVIPPSICQLSNLENFTYSSNYFSGRPPICAASLLADIVVNGTMNCITGLARQRSDKQCSSLLARPVDCSKFGCYNIFSPPPPTFKMSPEVRTLPPPIYVYSSPPPPPSSKMSPTVRAYSPPPPPSSKMSPSVRAYSPPPPPYSKMSPSVRAYPPPPPPSPSPPPPYVYSSPPPPYVYSSPPPPPYVYSSPPPPPYVYSSPPPPYVYSSPPPPYVYSSPPPPPPSPPPPCPESSPPPPVVYYAPVTQSPPPPSPVYYPPVTQSPPPPSPVYYPPVTNSPPPPSPVYYPPVTYSPPPPSPVYYPQVTPSPPPPSPLYYPPVTPSPPPPSPVYYPPVTPSPPPPSPVYYPPVTPSPPPPSPVYYPSETQSPPPPTEYYYSPSQSPPPTKACKEGHPPQATPSYEPPPEYSYSSSPPPPSPTSYFPPMPSVSYDASPPPPPSYY
modifications: left off: Gal4 DNA-binding domain (from the vector pGBKT7), end not stated, kept
notes: LRR domain of LRX1 (BD-LRX1), gene At1g12040
FER^ECD [1]
  interaction with FER^ECD: confirmed in a yeast-two-hybrid (Y2H) experiment
FER^ECD [2]; listed as LRX1^ΔE
  interaction with FER^ECD: show interaction with FER^ECD

B2: LRX3^ΔE: LRX3 lacking the extensin domain (protein)
chain: LSISSDGGVLSDNEVRHIQRRQLLEFAERSVKITVDPSLNFENPRLRNAYIALQAWKQAILSDPNNFTSNWIGSNVCNYTGVFCSPALDNRKIRTVAGIDLNHADIAGYLPEELGLLSDLALFHVNSNRFCGTVPHRFNRLKLLFELDLSNNRFAGKFPTVVLQLPSLKFLDLRFNEFEGTVPKELFSKDLDAIFINHNRFRFELPENFGDSPVSVIVLANNRFHGCVPSSLVEMKNLNEIIFMNNGLNSCLPSDIGRLKNVTVFDVSFNELVGPLPESVGEMVSVEQLNVAHNMLSGKIPASICQLPKLENFTYSYNFFTGEAPVCLRLPEFDDRRNCLPGRPAQRSPGQCKAFLSRPPVNCGSFSCGRSVSPRPPVVTPLPPPSLPSPPPPAPIFSTPPTLTSPPPPSPPPPVYSPPPPPPPPPPVYSPPPPPPPPPPPPVYSPPPPPPPPPPPPPVYSPPPPSPPPPPPPVYSPPPPPPPPPPPPVYSPPPPPVYSSPPPPPSPAPTPVYCTRPPPPPPHSPPPPQFSPPPPEPYYYSSPPPPHSSPPPHSPPPPHSPPPPIYPYLSPPPPPTPVSSPPPTPVYSPPPPPPCIEPPPPPPCIEYSPPPPPPVVHYSSPPPPPVYYSSPPPPPVYYSSPPPPPPVHYSSPPPPEVHYHSPPPSPVHYSSPPPPPSAPCEESPPPAPVVHHSPPPPMVHHSPPPPVIHQSPPPPSPEYEGPLPPVIGVSYASPPPPPFY
modifications: left off: double FLAG, C-terminal, kept
notes: LRX3 lacking the extensin domain
FER^ECD [2]
  interaction with FER^ECD: revealed interaction of the two proteins; also recorded: show interaction with FER^ECD

B3: LRX2: LRR domain of LRX2 (BD-LRX2), gene At1g62440 (protein)
chain: MLLFPSTSLRLFFFLFLLFSSCFLQIRGDDDDDDISDDNIKVDPSLKFENPSLRQAYIALQSWKQAIFSDPFNFTANWNGSDVCSYNGIFCAPSPSSPKTRVVAGIDLNHADMAGYLPRELGLLTDLALFHLNSNRFCGEVPLTFKHMKLLFELDLSNNRFVGKFPNVVLSLPSLKFLDLRYNEFEGSIPSKLFDKELDAIFLNHNRFMFGIPENMGNSPVSALVLADNDLGGCIPGSIGLMGKTLNEIILSNDNLTGCLPPQIGNLKNVTVFDISFNRLSGPLPSSIGNMKSLEQLNVANNRFTGVIPSSICQLSNLENFTYSSNFFTGDAPRCVALLGDNVVVNGSMNCIDGKEDQRSSKECSSPASRSVDCSKFGCNNFFSPPPPSFKMSPTVRVLPPPPPSSKMSPTFRATPPPPSSKMSPSFRATPPPPSSKMSPSFRATPPPPSSKMSPSVKAYPPPPPPPEYEPSPPPPSSEMSPSVRAYPPPPPLSPPPPSPPPPYIYSSPPPPSPSPPPPYIYSSPPPVVNCPPTTQSPPPPKYEQTPSPREYYPSPSPPYYQYTSSPPPPTYYATQSPPPPPPPTYYAVQSPPPPPPVYYPPVTASPPPPPVYYTPVIQSPPPPPVYYSPVTQSPPPPPPVYYPPVTQSPPPSPVYYPPVTQSPPPPPVYYLPVTQSPPPPSPVYYPPVAKSPPPPSPVYYPPVTQSPPPPSTPVEYHPPASPNQSPPPEYQSPPPKGCNDSPSNDHHYQTPTPPSLPPPYYEDTPLPPIRGVSYASPPPPSIPYY
modifications: left off: Gal4 DNA-binding domain (from the vector pGBKT7), end not stated, kept
notes: LRR domain of LRX2 (BD-LRX2), gene At1g62440
FER^ECD [1]
  interaction with FER^ECD: showed interaction with FER^ECD

B4: synthetic RALF1 peptide (peptide)
peptide: ATTKYISYQSLKRNSVPCSRRGASYYNCQNGAQANPYSRGCSKIARCRS
[3]
  Kd: 4.5 nM
[4]
  Kd: 11000 nM
[5]
  Kd: 5.5 nM
[6]
  Kd: 3.5 nM
